This series deals with the molecule itself. Nature of the series: cryo-EM structure.

What is called stoichiometry N is the number of molecules, sites or subunits per partner or assembly.

B1: hemagglutinin (HA) spike on spiked nanobicelles (SNB) purified from the Fluad vaccine (natural protein)
chain: not shown
In the case of B1, the “stoichiometry N” value worked out at 3.

The record behind these values is article doi:10.1101/2024.09.16.613335, “Structure-guided assembly of an influenza spike nanobicelle vaccine provides pan H1 intranasal protection” (bioRxiv, 2024).
